Experimental data: publication PMC12749989, “Conformational plasticity across phylogenetic clusters of RND multidrug efflux pumps and its impact on substrate specificity” (Nature Communications, 2025)

Assays:
[1] = molecular target: K. pneumoniae OqxB (Klebsiella pneumoniae); assay: crystal structure; detergent-solubilised (DDM) OqxB; sitting drop, 25 °C, 12% PEG4000, 0.2 M MgCl2, 100 mM ADA pH 6.5
[2] = molecular target: K. pneumoniae OqxB (Klebsiella pneumoniae); assay: cryo-EM structure; single-particle cryo-EM of AcrB or OqxB reconstituted in detergent-free salipro nanodiscs (saposinA, E. coli total lipids), 20 mM Tris pH 7.5, 150 mM NaCl
[3] = molecular target: the molecule itself; assay: cryo-EM structure; single-particle cryo-EM of DDM-solubilised AcrB; trimer composition from the classified monomers
[4] = molecular target: the molecule itself; assay: cryo-EM structure; single-particle cryo-EM of AcrB or OqxB reconstituted in detergent-free salipro nanodiscs (saposinA, E. coli total lipids), 20 mM Tris pH 7.5, 150 mM NaCl
[5] = molecular target: the molecule itself; assay: crystal structure; DDM-solubilised AcrB variants mixed with DARPins 1:2, excess DARPin removed by SEC (20 mM Tris pH 7.5, 150 mM NaCl, 0.03 % DDM); hanging drop, 18 °C; with 2 mM minocycline or apo

## K. pneumoniae OqxB (natural protein)
[1]
  stoichiometry N: 3
[2]
  stoichiometry N: 3

B1: E. coli AcrB V612W (natural protein)
chain: MPNFFIDRPIFAWVIAIIIMLAGGLAILKLPVAQYPTIAPPAVTISASYPGADAKTVQDTVTQVIEQNMNGIDNLMYMSSNSDSTGTVQITLTFESGTDADIAQVQVQNKLQLAMPLLPQEVQQQGVSVEKSSSSFLMVVGVINTDGTMTQEDISDYVAANMKDAISRTSGVGDVQLFGSQYAMRIWMNPNELNKFQLTPVDVITAIKAQNAQVAAGQLGGTPPVKGQQLNASIIAQTRLTSTEEFGKILLKVNQDGSRVLLRDVAKIELGGENYDIIAEFNGQPASGLGIKLATGANALDTAAAIRAELAKMEPFFPSGLKIVYPYDTTPFVKISIHEVVKTLVEAIILVFLVMYLFLQNFRATLIPTIAVPVVLLGTFAVLAAFGFSINTLTMFGMVLAIGLLVDDAIVVVENVERVMAEEGLPPKEATRKSMGQIQGALVGIAMVLSAVFVPMAFFGGSTGAIYRQFSITIVSAMALSVLVALILTPALCATMLKPIAKGDHGEGKKGFFGWFNRMFEKSTHHYTDSVGGILRSTGRYLVLYLIIVVGMAYLFVRLPSSFLPDEDQGVFMTMVQLPAGATQERTQKVLNEVTHYYLTKEKNNVESVFAWNGFGFAGRGQNTGIAFVSLKDWADRPGEENKVEAITMRATRAFSQIKDAMVFAFNLPAIVELGTATGFDFELIDQAGLGHEKLTQARNQLLAEAAKHPDMLTSVRPNGLEDTPQFKIDIDQEKAQALGVSINDINTTLGAAWGGSYVNDFIDRGRVKKVYVMSEAKYRMLPDDIGDWYVRAADGQMVPFSAFSSSRWEYGSPRLERYNGLPSMEILGQAAPGKSTGEAMELMEQLASKLPTGVGYDWTGMSYQERLSGNQAPSLYAISLIVVFLCLAALYESWSIPFSVMLVVPLGVIGALLAATFRGLTNDVYFQVGLLTTIGLSAKNAILIVEFAKDLMDKEGKGLIEATLDAVRMRLRPILMTSLAFILGVMPLVISTGAGSGAQNAVGTGVMGGMVTATVLAIFFVPVFFVVVRRRFSRKNEDIEHSHTVDHH
notes: Homotrimer; source: E. coli C43 (DE3) ∆acrB, purified (Ni-NTA, SEC), DDM-solubilised
[3]
  stoichiometry N: 3

B2: E. coli AcrB V612F (natural protein)
chain: MPNFFIDRPIFAWVIAIIIMLAGGLAILKLPVAQYPTIAPPAVTISASYPGADAKTVQDTVTQVIEQNMNGIDNLMYMSSNSDSTGTVQITLTFESGTDADIAQVQVQNKLQLAMPLLPQEVQQQGVSVEKSSSSFLMVVGVINTDGTMTQEDISDYVAANMKDAISRTSGVGDVQLFGSQYAMRIWMNPNELNKFQLTPVDVITAIKAQNAQVAAGQLGGTPPVKGQQLNASIIAQTRLTSTEEFGKILLKVNQDGSRVLLRDVAKIELGGENYDIIAEFNGQPASGLGIKLATGANALDTAAAIRAELAKMEPFFPSGLKIVYPYDTTPFVKISIHEVVKTLVEAIILVFLVMYLFLQNFRATLIPTIAVPVVLLGTFAVLAAFGFSINTLTMFGMVLAIGLLVDDAIVVVENVERVMAEEGLPPKEATRKSMGQIQGALVGIAMVLSAVFVPMAFFGGSTGAIYRQFSITIVSAMALSVLVALILTPALCATMLKPIAKGDHGEGKKGFFGWFNRMFEKSTHHYTDSVGGILRSTGRYLVLYLIIVVGMAYLFVRLPSSFLPDEDQGVFMTMVQLPAGATQERTQKVLNEVTHYYLTKEKNNVESVFAFNGFGFAGRGQNTGIAFVSLKDWADRPGEENKVEAITMRATRAFSQIKDAMVFAFNLPAIVELGTATGFDFELIDQAGLGHEKLTQARNQLLAEAAKHPDMLTSVRPNGLEDTPQFKIDIDQEKAQALGVSINDINTTLGAAWGGSYVNDFIDRGRVKKVYVMSEAKYRMLPDDIGDWYVRAADGQMVPFSAFSSSRWEYGSPRLERYNGLPSMEILGQAAPGKSTGEAMELMEQLASKLPTGVGYDWTGMSYQERLSGNQAPSLYAISLIVVFLCLAALYESWSIPFSVMLVVPLGVIGALLAATFRGLTNDVYFQVGLLTTIGLSAKNAILIVEFAKDLMDKEGKGLIEATLDAVRMRLRPILMTSLAFILGVMPLVISTGAGSGAQNAVGTGVMGGMVTATVLAIFFVPVFFVVVRRRFSRKNEDIEHSHTVDHH
notes: Homotrimer; source: E. coli C43 (DE3) ∆acrB, purified (Ni-NTA, SEC); DDM-solubilised, in cyclohexyl-n-hexyl-β-D-maltoside (apo crystals) or reconstituted in salipro nanodiscs
[4]
  stoichiometry N: 3

B3: E. coli AcrB V612N (natural protein)
chain: MPNFFIDRPIFAWVIAIIIMLAGGLAILKLPVAQYPTIAPPAVTISASYPGADAKTVQDTVTQVIEQNMNGIDNLMYMSSNSDSTGTVQITLTFESGTDADIAQVQVQNKLQLAMPLLPQEVQQQGVSVEKSSSSFLMVVGVINTDGTMTQEDISDYVAANMKDAISRTSGVGDVQLFGSQYAMRIWMNPNELNKFQLTPVDVITAIKAQNAQVAAGQLGGTPPVKGQQLNASIIAQTRLTSTEEFGKILLKVNQDGSRVLLRDVAKIELGGENYDIIAEFNGQPASGLGIKLATGANALDTAAAIRAELAKMEPFFPSGLKIVYPYDTTPFVKISIHEVVKTLVEAIILVFLVMYLFLQNFRATLIPTIAVPVVLLGTFAVLAAFGFSINTLTMFGMVLAIGLLVDDAIVVVENVERVMAEEGLPPKEATRKSMGQIQGALVGIAMVLSAVFVPMAFFGGSTGAIYRQFSITIVSAMALSVLVALILTPALCATMLKPIAKGDHGEGKKGFFGWFNRMFEKSTHHYTDSVGGILRSTGRYLVLYLIIVVGMAYLFVRLPSSFLPDEDQGVFMTMVQLPAGATQERTQKVLNEVTHYYLTKEKNNVESVFANNGFGFAGRGQNTGIAFVSLKDWADRPGEENKVEAITMRATRAFSQIKDAMVFAFNLPAIVELGTATGFDFELIDQAGLGHEKLTQARNQLLAEAAKHPDMLTSVRPNGLEDTPQFKIDIDQEKAQALGVSINDINTTLGAAWGGSYVNDFIDRGRVKKVYVMSEAKYRMLPDDIGDWYVRAADGQMVPFSAFSSSRWEYGSPRLERYNGLPSMEILGQAAPGKSTGEAMELMEQLASKLPTGVGYDWTGMSYQERLSGNQAPSLYAISLIVVFLCLAALYESWSIPFSVMLVVPLGVIGALLAATFRGLTNDVYFQVGLLTTIGLSAKNAILIVEFAKDLMDKEGKGLIEATLDAVRMRLRPILMTSLAFILGVMPLVISTGAGSGAQNAVGTGVMGGMVTATVLAIFFVPVFFVVVRRRFSRKNEDIEHSHTVDHH
notes: as for B1
[5]
  stoichiometry N: 3
